The values that follow come from patent US20210228731A1 (Novartis, published 2021).

In experiment [1] the target is T1, Cynomolgus monkey cKIT D1-5 (cynomolgus monkey, UniProt P10721 26-524 (human entry)).
T1 construct: also called cyno cKIT ECD
T1 chain: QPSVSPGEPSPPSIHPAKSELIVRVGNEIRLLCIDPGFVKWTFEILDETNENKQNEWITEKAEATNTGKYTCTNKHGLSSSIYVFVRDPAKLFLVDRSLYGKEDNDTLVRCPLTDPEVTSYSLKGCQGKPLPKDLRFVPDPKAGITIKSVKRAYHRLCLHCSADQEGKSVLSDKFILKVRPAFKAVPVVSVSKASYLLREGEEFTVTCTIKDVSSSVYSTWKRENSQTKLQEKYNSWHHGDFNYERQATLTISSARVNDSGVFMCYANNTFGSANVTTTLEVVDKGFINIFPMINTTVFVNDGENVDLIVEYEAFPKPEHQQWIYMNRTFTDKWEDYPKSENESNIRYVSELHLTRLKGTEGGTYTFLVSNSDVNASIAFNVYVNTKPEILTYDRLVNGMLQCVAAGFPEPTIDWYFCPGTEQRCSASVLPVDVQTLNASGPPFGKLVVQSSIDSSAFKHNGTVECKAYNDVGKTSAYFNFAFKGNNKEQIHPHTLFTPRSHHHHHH
In words: SET per the column head (Example 4 describes SPR, Biacore: antibody captured by anti-human Fc, cKIT ECD in solution).

Experiment [2] addresses T2, Human cKIT D1-5 (extracellular domain) (human, UniProt P10721 26-524).
T2 construct: also called human cKIT ECD; full-length cKIT ECD
The description is as above.

In experiment [3] the target is T3, Rat cKIT D1-5, C-terminal mFc (rat).
T3 construct: also called rat cKIT-mFc
T3 chain: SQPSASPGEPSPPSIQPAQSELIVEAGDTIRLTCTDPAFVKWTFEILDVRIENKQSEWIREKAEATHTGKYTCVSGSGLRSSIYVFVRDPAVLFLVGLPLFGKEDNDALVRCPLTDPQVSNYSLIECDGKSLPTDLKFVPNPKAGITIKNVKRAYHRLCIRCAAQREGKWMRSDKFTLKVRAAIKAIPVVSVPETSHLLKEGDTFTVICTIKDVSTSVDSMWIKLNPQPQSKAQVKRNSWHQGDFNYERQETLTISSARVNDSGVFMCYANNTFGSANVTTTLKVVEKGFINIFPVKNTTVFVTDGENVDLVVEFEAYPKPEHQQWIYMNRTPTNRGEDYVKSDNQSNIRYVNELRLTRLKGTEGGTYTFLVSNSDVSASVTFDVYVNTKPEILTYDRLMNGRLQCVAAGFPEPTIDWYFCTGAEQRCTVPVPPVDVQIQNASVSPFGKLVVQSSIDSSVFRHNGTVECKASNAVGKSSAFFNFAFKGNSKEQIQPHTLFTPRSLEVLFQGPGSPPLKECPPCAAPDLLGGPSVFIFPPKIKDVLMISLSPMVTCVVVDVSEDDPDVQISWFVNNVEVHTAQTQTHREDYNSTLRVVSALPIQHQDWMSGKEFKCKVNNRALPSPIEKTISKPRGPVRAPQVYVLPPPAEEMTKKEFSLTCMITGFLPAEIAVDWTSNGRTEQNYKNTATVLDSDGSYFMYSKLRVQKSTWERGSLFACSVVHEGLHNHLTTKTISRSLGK
In words: reactivity to rat cKIT (method not given; Example 4 describes SPR).

Experiment [4] deals with T4, Mouse cKIT ECD, C-terminal 6x His (Sino Biological Inc, catalog number 50530-M08H) (mouse, UniProt P05532 25-527).
T4 construct: extracellular domain
T4 sequence: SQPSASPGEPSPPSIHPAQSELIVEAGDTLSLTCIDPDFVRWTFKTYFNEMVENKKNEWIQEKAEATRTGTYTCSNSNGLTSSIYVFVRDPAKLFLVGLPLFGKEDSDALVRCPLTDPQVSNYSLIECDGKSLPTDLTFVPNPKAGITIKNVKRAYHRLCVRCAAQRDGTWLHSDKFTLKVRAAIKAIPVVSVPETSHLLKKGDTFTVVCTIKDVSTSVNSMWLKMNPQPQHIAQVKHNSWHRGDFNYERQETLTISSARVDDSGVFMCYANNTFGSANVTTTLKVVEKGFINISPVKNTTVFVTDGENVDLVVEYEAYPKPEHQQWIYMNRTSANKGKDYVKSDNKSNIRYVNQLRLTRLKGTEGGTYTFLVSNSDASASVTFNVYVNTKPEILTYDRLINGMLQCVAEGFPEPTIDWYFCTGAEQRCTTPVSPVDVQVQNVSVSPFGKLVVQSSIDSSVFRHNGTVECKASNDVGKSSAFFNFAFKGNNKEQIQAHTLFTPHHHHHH
In words: reactivity to mouse cKIT (method not given; Example 4 describes SPR).

T2 sequence (P10721 other isoform, or with tags, fused parts or gaps): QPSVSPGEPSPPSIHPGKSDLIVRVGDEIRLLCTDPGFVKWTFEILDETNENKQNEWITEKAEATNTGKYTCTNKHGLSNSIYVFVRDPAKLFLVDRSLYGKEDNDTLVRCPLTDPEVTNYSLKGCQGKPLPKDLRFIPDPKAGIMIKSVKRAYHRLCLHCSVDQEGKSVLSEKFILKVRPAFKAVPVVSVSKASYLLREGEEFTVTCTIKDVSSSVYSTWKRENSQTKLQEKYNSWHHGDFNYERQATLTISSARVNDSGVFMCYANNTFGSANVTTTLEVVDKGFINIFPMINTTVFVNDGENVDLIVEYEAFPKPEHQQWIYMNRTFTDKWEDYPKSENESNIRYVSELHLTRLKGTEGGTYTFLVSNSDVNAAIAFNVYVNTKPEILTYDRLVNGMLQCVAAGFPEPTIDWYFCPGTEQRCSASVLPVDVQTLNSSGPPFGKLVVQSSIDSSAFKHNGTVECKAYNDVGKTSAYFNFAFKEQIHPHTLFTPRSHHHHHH

B1: Anti-cKIT Ab5 (antibody, human IgG1, lambda, V domains shown)
VH: QVQLVQSGAEVKKPGESLKISCKGSGYSFTNYWIAWVRQMPGKGLEWMGIIYPSNSYTLYSPSFQGQVTISADKSISTAYLQWSSLKASDTAMYYCARVPPGGSISYPAFDHWGQGTLVTVSS
VL: DIELTQPPSVSVSPGQTASITCSGDNIGSIYASWYQQKPGQAPVLVIYRDNKRPSGIPERFSGSNSGNTATLTISGTQAEDEADYYCSVTDMEQHSVFGGGTKLTVLG
notes: Full-length human IgG1, lambda light chain
Regarding B1, the Kd came to 180 pM in experiment [1] and 110 pM in experiment [2]. For the same molecule, the binding result in experiment [3] is listed as “binds”.

B2: Anti-cKIT Ab4 (antibody, human IgG1, lambda, V domains shown)
VH: QVQLQQSGPGLVKPSQTLSLTCAISGDSVSTNSAAWNWIRQSPSRGLEWLGRIYYRSQWLNDYAVSVKSRITINPDTSKNQFSLQLNSVTPEDTAVYYCARQLTYPYTVYHKALDVWGQGTLVTVSS
VL: DIELTQPPSVSVSPGQTASITCSGDNLGDQYVSWYQQKPGQAPVLVIYDDTDRPSGIPERFSGSNSGNTATLTISGTQAEDEADYYCQSTDSKSVVFGGGTKLTVLG
notes: as for B1
With B2, the Kd worked out at 140 pM in experiment [1] and 2400 pM in experiment [2]. Besides, the binding result in experiment [3] is reported as “binds”.

B3: Anti-cKIT Ab1 (antibody, human IgG1, kappa, V domains shown)
VH: QVQLVQSGAEVKKPGSSVKVSCKASGGTFSSYAISWVRQAPGQGLEWMGVIFPAEGAPGYAQKFQGRVTITADESTSTAYMELSSLRSEDTAVYYCARGGYISDFDVWGQGTLVTVSS
VL: DIQMTQSPSSLSASVGDRVTITCRASQSISNYLAWYQQKPGKAPKLLIYDASSLQSGVPSRFSGSGSGTDFTLTISSLQPEDFATYYCQQYYYESITFGQGTKVEIKR
notes: Full-length human IgG1, kappa light chain
B3: the results for the Kd in experiment [1] and in experiment [2] were 170 pM and 94 pM, respectively. The binding result in experiment [3] and in experiment [4] was “no binding” each time.

B4: Anti-cKIT Ab2 (antibody, human IgG1, kappa, V domains shown)
VH: QVQLVQSGAEVKKPGSSVKVSCKASGGTFSSHALSWVRQAPGQGLEWMGGIIPSFGTADYAQKFQGRVTITADESTSTAYMELSSLRSEDTAVYYCARGLYDFDYWGQGTLVTVSS
VL: DIQMTQSPSSLSASVGDRVTITCRASQDISQDLAWYQQKPGKAPKLLIYDASSLQSGVPSRFSGSGSGTDFTLTISSLQPEDFAVYYCQQYYYLPSTFGQGTKVEIKR
notes: as for B3
In the case of B4, the results for the Kd in experiment [1] and in experiment [2] were 10 pM and 7 pM, respectively. Moreover, the binding result in experiment [3] and in experiment [4] was “no binding” each time.

B5: Anti-cKIT Ab3 (antibody, human IgG1, kappa, V domains shown)
VH: QVQLVQSGAEVKKPGSSVKVSCKASGGTFSSYAISWVRQAPGQGLEWMGTIGPFEGQPRYAQKFQGRVTITADESTSTAYMELSSLRSEDTAVYYCARGGYISDFDVWGQGTLVTVSS
VL: DIQMTQSPSSLSASVGDRVTITCRASQSISNYLAWYQQKPGKAPKLLIYDASSLQSGVPSRFSGSGSGTDFTLTISSLQPEDFATYYCQQYYYESITFGQGTKVEIKR
notes: as for B3
In turn, B5 displayed a Kd in experiment [1] of 52 pM. Further, the binding result in experiment [3] and in experiment [4] was “no binding” each time.

The term Kd denotes the equilibrium constant for the complex coming apart.
